Experimental data reported in publication PMC4498774.

Target: T1, His-BaeR (Acinetobacter baumannii ATCC 17978) (UniProt A0ABX6CJ55)
T1 sequence: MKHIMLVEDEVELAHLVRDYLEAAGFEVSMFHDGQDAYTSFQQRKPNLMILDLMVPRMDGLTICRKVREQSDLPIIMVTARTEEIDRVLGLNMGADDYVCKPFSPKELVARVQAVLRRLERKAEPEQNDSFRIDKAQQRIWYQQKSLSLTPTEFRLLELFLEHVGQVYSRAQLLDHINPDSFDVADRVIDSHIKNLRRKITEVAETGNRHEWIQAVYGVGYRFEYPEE
Assay: EMSA

| Sequence | binding |
| --- | --- |
| GCCTTCACGTTTTAAATAATTTTCAATAATGTCGCCAATATCGTAGTCATCTTCTACCACAAGAATAACTTTATCTTGGCAATCAAAAGAAAAAGAATGATCAAACATAGAAAATCTGGCTATAGAAAGTGCTTCAACTCATCATACGCTAAATTATCCGTATTTCTCCACACTTACTCCACACTTTAGTGATTATCCCTACACACTCATCAAAAATAATACGAACATCAAAAACTCACTAGG (double strand) [adeA promoter region (243 bp)] | no binding |
| TTTCTGAGCAGCAGCAGCTTGCTGTTTCTCATCGGAGCCTTTGCTACAACCAACAAGCGCGATACTTGTTGCTAATGCGCAAGCAGTAAGGGCTGGTGCCCAAAGCTTAGCCGACATCATTGTTCCACCTCGTTTAGATAAAAT (double strand) [adeI promoter region (144 bp)] | no binding |
